18 molecules from US20240376639A1 (ELASMOGEN, published 2024) can be followed below.

Experiment [1] concerns the target T1, human ROR1 (human, UniProt Q01973 30-403, limits assumed).
T1 construct: The general ELISA protocol coats hROR1-Fc; also called hROR1; huROR1
Kind of experiment: BLI against hROR1.

The target in experiment [2] is T1, human ROR1. Put plainly: kinetics against hROR1; method not named in the table (kdis heading as in the BLI table).
A further experiment concerns the target hDLL4-Fc (human, UniProt Q9NR61 27-524, limits assumed). Put plainly: direct binding ELISA on 1 µg/mL coated hDLL4-Fc, protein input unquantified, detection with anti-poly-histidine-HRP.
The target of the next experiment is T2, Human Serum Albumin (human, UniProt P02768 25-609).
T2 construct: Non-target control antigen in the ELISAs; also called HSA
Kind of experiment: monoclonal phage ELISA, HSA as control antigen, OD450.

The target of another experiment is T3, human DLL4 (human, UniProt Q9NR61 27-524, limits assumed).
T3 construct: Antigen of the monoclonal phage ELISA; also called hDLL4
T3 sequence (Q9NR61 27-524 limits assumed): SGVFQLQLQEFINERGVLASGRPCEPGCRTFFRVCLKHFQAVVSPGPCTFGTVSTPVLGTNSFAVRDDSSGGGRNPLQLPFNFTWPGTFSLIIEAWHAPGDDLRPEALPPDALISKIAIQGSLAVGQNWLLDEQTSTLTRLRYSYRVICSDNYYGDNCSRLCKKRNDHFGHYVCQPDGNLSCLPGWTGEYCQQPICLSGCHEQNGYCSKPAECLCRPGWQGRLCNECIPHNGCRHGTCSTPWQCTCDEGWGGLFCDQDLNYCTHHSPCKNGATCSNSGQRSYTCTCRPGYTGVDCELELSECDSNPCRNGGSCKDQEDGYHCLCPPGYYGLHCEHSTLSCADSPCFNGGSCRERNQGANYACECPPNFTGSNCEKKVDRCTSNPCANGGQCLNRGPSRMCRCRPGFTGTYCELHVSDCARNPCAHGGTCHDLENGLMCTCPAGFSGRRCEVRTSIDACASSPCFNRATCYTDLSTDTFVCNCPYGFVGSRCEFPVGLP
Kind of experiment: monoclonal phage ELISA on hDLL4, with HSA as control antigen, OD450.

The target in experiment [3] is T1, human ROR1. Kind of experiment: BIAcore (SPR).

T1 sequence (Q01973 30-403 limits assumed): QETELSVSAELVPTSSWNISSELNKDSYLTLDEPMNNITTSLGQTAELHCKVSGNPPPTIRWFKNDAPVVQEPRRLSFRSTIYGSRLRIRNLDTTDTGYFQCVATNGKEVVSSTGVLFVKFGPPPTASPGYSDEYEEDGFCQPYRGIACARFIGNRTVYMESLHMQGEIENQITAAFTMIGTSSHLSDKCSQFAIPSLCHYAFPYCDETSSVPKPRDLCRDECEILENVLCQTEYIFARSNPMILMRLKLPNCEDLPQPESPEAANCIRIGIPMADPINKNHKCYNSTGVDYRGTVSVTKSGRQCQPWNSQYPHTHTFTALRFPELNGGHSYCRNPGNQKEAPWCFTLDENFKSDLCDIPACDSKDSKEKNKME
Chain of hDLL4-Fc (Q9NR61 27-524 limits assumed): as the sequence (Q9NR61 27-524 limits assumed) above

B1: D3 V2 (VNAR)
VNAR: ASVNQSPSSLSASVGDRVTITCVLTDTSYGLYSTSWFRKNPGTTDWERMSIGGRYVESVNKRAKSFTLTISSLQPEDFATYYCKAQSGMAISTGSGHGYNWYDGAGTKVEIK
notes: Humanised VNAR (soloMER)
As for B1, in the experiment with human ROR1 [1], binding was put at a Kd of 18.9 nM and the kon came out at 1.85e+06 M⁻¹ s⁻¹. In the experiment with human ROR1 [2], this molecule came in with a Kd of 15.6 nM, a koff of 0.0238 s⁻¹ and a kon of 1.52e+06 M⁻¹ s⁻¹.

B2: D3 V5 (VNAR)
VNAR: ASVNQSPSSLSASVGDRVTITCVLTDTSYGLYSTSWYQQKPGTTDWERMSIGGRFSGSGSKRAKSFTLTISSLQPEDFATYYCKAQSGMAISTGSGHGYNWYDGAGTKVEIK
notes: Humanised VNAR (soloMER)
For the molecule B2, the dissociation constant Kd in the experiment with human ROR1 [1] was 36.2 nM.

B3: D3 V4 (VNAR)
VNAR: ASVNQSPSSLSASVGDRVTITCVLTDTSYGLYSTSWYQQKPGTTDWERMSIGGRYVESVNKRAKSFTLTISSLQPEDFATYYCKAQSGMAISTGSGHGYNWYDGAGTKVEIK
notes: Humanised VNAR (soloMER)
In the experiment with human ROR1 [1], B3 registered a Kd of 58.5 nM and an on-rate constant (kon) of 1.38e+06 M⁻¹ s⁻¹.

B4: 78WT (VNAR)
VNAR: TRVDQTPRTATKETGESLTINCVLTDTNYSLYATSWFRKNPGTTDWERMSIGGRYVESVNKGAKSFSLRIKDLTVADSATYICRAVWFPYFISDMWDVYGAGTVLTVN
notes: Parental non-humanised VNAR 78; also called native (WT) anti-DLL4 VNAR 78
Take B4: the binding result with hDLL4-Fc is recorded as “binds”.

B5: 78-V3 (VNAR)
VNAR: TRVDQSPSSLSASVGDRVTITCVLTDTNYSLYATSWYQQKPGKTDWERMSIGGRYVESVNKGAKSFTLTISSLQPEDFATYYCRAVWFPYFISDMWDVYGGGTKVEIK
notes: Humanised VNAR (soloMER), poly-histidine tagged, expressed in E. coli; also called soloMER 78 variant V3
With B5, the binding result in the experiment with hDLL4-Fc was “binds”.

B6: 78-V5 (VNAR)
VNAR: TRVDQSPSSLSASVGDRVTITCVLTDTNYSLYATSWYQQKPGKTDWERMSIGGRFSGSGSKGAKSFTLTISSLQPEDFATYYCRAVWFPYFISDMWDVYGGGTKVEIK
notes: Humanised VNAR (soloMER), poly-histidine tagged, expressed in E. coli; also called soloMER 78 variant V5
For B6, the binding result with hDLL4-Fc is reported as “binds”.

B7: 78-V4 (VNAR)
VNAR: TRVDQSPSSLSASVGDRVTITCVLTDTNYSLYATSWFRKNPGTTDWERMSIGGRFSGSGSKGAKSFTLTISSLQPEDFATYYCRAVWFPYFISDMWDVYGGGTKVEIK
notes: Humanised VNAR (soloMER), poly-histidine tagged, expressed in E. coli; also called soloMER 78 variant V4
Take B7: in the experiment with hDLL4-Fc, the binding result was “binds”.

B8: E4 WT (VNAR)
VNAR: ASVNQTPRTATKETGESLTINCVLTDTKYLYSTSWFRKNPGTTDWERMSIGGRYVESVNKGAKSFSLRIKDLTVADSATYICRAWTSFEEQVKDVYGAGTVLTVN
notes: also called pre-humanised parental clone E4 WT; Wt DLL4 VNAR
In the case of B8, the values for the binding result with Human Serum Albumin, in the experiment with human DLL4 and in the experiment with hDLL4-Fc were “no binding”, “binds” and “binds”, respectively.

B9: P3A1 WT dimer HisMyc (other)
VNAR 1: TRVDQTPRTATKETGESLTINCVLTDTSYGLYSTSWFRKNPGTTDWERMSIGGRYVESVNKGAKSFSLRIKDLTVADSATYYCKAREARHPWLRQWYDGAGTVLTVN
VNAR 2: TRVDQTPRTATKETGESLTINCVLTDTSYGLYSTSWFRKNPGTTDWERMSIGGRYVESVNKGAKSFSLRIKDLTVADSATYYCKAREARHPWLRQWYDGAGTVLTVN
modifications: In the real molecule the two VNAR copies form one polypeptide, joined by an unprinted short peptide linker and carrying a HisMyc tag. They are given here as two separate chains because the linker letters are unknown.
notes: VNAR dimer in one chain; also called parental WT clone P3A1; WT non-humanised P3A1 clone; not shown: The short peptide linker joining the two P3A1 copies and the HisMyc tag
Take B9: the Kd with human ROR1 [3] came to 0.302 nM.

B10: E4V2F3 (VNAR)
VNAR: ASVNQSPSSLSASVGDRVTITCVLTDTNYWYSTSWFRKNPGTTNEDRIIISGRYVESVNNGPKSFTLTISSLQPEDFATYYCRAWTSFEEQVKDVYGGGTKVEIK
notes: Clone from the E4-V2 humanised library
In the case of B10, the binding result was “no binding” with Human Serum Albumin and “binds” with human DLL4.

B11: E4V2Ee8 (VNAR)
VNAR: ASVNQSPSSLSASVGDRVTITCVLTGASYWYSTSWFRKNPGTTDEESMSNGGRYVESVNKRPMSFTLTISSLQPEDFATYYCRAWTSFEEQVKDVYGGGTKVEIK
notes: as for B10
On to B11, for which the binding result with Human Serum Albumin is given as “no binding”; with human DLL4, “binds”.

B12: E4V2Ee6 (VNAR)
VNAR: ASVNQSPSSLSASVGDRVTITCVLTDTRYLYATSWFRKNPGTTNKESISNGGRYVESVNKRSMSFTLTISSLQPEDFATYYCRAWTSFEEQVKDVYGGGTKVEIK
notes: as for B10
For B12, the binding result with Human Serum Albumin is “no binding”; with human DLL4, “binds”.

B13: E4V2Cc9 (VNAR)
VNAR: ASVNQSPSSLSASVGDRVTITCVLTGTEYLYSTSWFRKNPGTPNEDRMINGGRYVESVNKGTMSFTLTISSLQPEDFATYYCRAWTSFEEQVKDVYGGGTKVEIK
notes: as for B10
Turning to B13, the binding result with Human Serum Albumin was “no binding”; with human DLL4 it was “binds”.

B14: E4V2Cc8 (VNAR)
VNAR: ASVNQSPSSLSASVGDRVTITCVLTSAGYLYATSWFRKNPGTSDKESMIIGRRYVESVNNRSMSFTLTISSLQPEDFATYYCRAWTSFEEQVKDVYGGGTKVEIK
notes: as for B10
Consider B14, for which the binding result with Human Serum Albumin is “no binding”; with human DLL4, “binds”.

B15: E4V2Gg11 (VNAR)
VNAR: ASVNQSPSSLSASVGDRVTITCVLTGTRYWFSTSWFRKNPGTTDEDSISNGGRYVESVNNGSMSFTLTISSLQPEDFATYYCRAWTSFEEQVKDVYGGGTKVEIK
notes: as for B10
B15: the binding result with Human Serum Albumin was “no binding”; with human DLL4, “binds”.

B16: E4V2B9 (VNAR)
VNAR: ASVNQSPSSLSASVGDRVTITCVLTGTGYWYSTSWFRKNPGTSNEDRIIIGGRYVESVNKGTKSFTLTISSLQPEDFATYYCRAWTSFEEQVKDVYGGGTKVEIK
notes: as for B10
Consider B16, for which, in the experiment with human DLL4, the binding result is “binds”.

B17: E4V2D10 (VNAR)
VNAR: ASVNQSPSSLSASVGDRVTITCVLTGAGYWFATSWFRKNPGTSDKESISNSGRYVESVNKRSMSFTLTISSLQPEDFATYYCRAWTSFEEQVKDVYGGGTKVEIK
notes: as for B10
Take B17: the figures for the binding result with Human Serum Albumin and in the experiment with human DLL4 were “no binding” and “binds”, respectively.

B18: P3A1 V1 dimer HisMyc (other)
VNAR 1: TRVDQSPSSLSASVGDRVTITCVLTDTSYGLYSTSWFRKNPGTTDWERMSIGGRYVESVNKGAKSFTLTISSLQPEDFATYYCKAREARHPWLRQWYDGAGTKVEIK
VNAR 2: TRVDQSPSSLSASVGDRVTITCVLTDTSYGLYSTSWFRKNPGTTDWERMSIGGRYVESVNKGAKSFTLTISSLQPEDFATYYCKAREARHPWLRQWYDGAGTKVEIK
modifications: In the real molecule the two VNAR copies form one polypeptide, joined by an unprinted short peptide linker and carrying a HisMyc tag. They are given here as two separate chains because the linker letters are unknown.
notes: 2x P3A1 V1 joined with a short peptide linker, with a HisMyc tag; expressed in bacteria; not shown: The short peptide linker joining the two P3A1 V1 copies and the HisMyc tag
With B18, in the experiment with human ROR1 [3], binding was characterised by a dissociation constant (Kd) of 0.179 nM.
